For 2 molecules, binding result and stoichiometry N results are on record in PMC11035591, “Structural insights into the transporting and catalyzing mechanism of DltB in LTA D-alanylation” (Nature Communications, 2024).

Experiment [1] addresses T1, Streptococcus thermophilus DltB (Streptococcus thermophilus, UniProt Q5M4V4 1-415).
T1 construct: the entire chain from Met1 to Lys415 was modelled in the cryo-EM maps ('intact DltB protein'); Homo-tetramer (dimer of dimers) by SEC, cross-linking and cryo-EM; purification also gave oligomer, dimer and monomer fractions; also called WT DltB; DltB tetramer; source: E. coli C41(DE3); purified (Triton X-100 solubilisation, Ni-NTA, Superdex 200 in 0.03% β-DDM); also unpurified in whole cells, on …
T1 sequence (looked up): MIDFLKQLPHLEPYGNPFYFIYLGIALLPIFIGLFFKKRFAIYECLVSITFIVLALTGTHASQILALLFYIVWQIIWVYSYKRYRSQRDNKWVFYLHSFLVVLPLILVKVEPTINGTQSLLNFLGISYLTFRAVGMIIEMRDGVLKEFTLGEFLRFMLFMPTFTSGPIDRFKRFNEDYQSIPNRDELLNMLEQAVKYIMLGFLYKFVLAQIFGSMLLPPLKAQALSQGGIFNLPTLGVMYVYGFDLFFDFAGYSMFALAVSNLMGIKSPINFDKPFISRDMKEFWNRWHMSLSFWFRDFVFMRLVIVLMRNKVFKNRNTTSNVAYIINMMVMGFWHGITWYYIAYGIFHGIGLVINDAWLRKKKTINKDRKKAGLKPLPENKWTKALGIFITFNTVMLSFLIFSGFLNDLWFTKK
Description: cryo-EM structure; DltB tetramer (10 mg/mL) incubated with purified DltC (1:1 ratio) for 30 min; 3.50 Å. The following applies: both partners purified.

Experiment [2] has as its target T2, Streptococcus thermophilus DltB (Streptococcus thermophilus), Q5M4V4.
T2 chain: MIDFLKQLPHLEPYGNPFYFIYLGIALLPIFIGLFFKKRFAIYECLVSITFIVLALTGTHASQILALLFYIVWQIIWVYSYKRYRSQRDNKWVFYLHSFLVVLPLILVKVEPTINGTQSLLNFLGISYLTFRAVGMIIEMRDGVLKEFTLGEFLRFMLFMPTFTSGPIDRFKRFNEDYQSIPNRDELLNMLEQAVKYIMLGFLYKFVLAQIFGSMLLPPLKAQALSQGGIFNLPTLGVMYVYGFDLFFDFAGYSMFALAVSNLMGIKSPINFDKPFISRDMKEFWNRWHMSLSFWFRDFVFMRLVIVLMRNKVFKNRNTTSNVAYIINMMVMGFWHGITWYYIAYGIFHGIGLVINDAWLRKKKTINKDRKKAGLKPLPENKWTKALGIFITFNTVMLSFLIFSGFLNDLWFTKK
Described as above. The following applies: remark: other sources report otherwise.

Experiment [3] has as its target T2, Streptococcus thermophilus DltB …. Description: cryo-EM structure; apo DltB tetramer, about 10 mg/mL in β-DDM; 3.42 Å. The following applies: remark: other sources report otherwise.
Experiment [4] shares this target. Briefly: SEC; membrane with overexpressed DltB (wild type or mutant) mildly solubilised with 0.25% β-DDM, Superdex 200; fractions analysed by western blot (anti-His). The following applies: remark: other sources report otherwise. On the technique in general: In gel filtration, larger molecules generally elute earlier.
Experiment [5] has the same target. Briefly: cryo-EM structure; DltB tetramer (10 mg/mL) incubated with the inhibitor m-AMSA (1:3 ratio) for 30 min; 3.23 Å. The following applies: remark: other sources report otherwise.

B1: Streptococcus thermophilus DltC (natural protein)
chain: MDVKAEVIEIIDELFMEDVSDMMDEDLFDAGVLDSMGTVELIVELESRFDIRVPVSEFGRDDWNTANKIVEGVTELRNA
notes: DltC, D-alanyl carrier protein, Streptococcus thermophilus; Used without the 4'-phosphopantetheine (Ppant) modification on Ser35; Modified pET28a vector with a TEV cleavage site; also called DltC-ST; source: E. coli BL21(DE3), purified (Ni column, TEV cleavage, Resource Q)
For B1, in experiment [1], the binding result was “binds”.

B2: Streptococcus thermophilus DltB, Q5M4V4 1-415 (enzyme)
chain: MIDFLKQLPHLEPYGNPFYFIYLGIALLPIFIGLFFKKRFAIYECLVSITFIVLALTGTHASQILALLFYIVWQIIWVYSYKRYRSQRDNKWVFYLHSFLVVLPLILVKVEPTINGTQSLLNFLGISYLTFRAVGMIIEMRDGVLKEFTLGEFLRFMLFMPTFTSGPIDRFKRFNEDYQSIPNRDELLNMLEQAVKYIMLGFLYKFVLAQIFGSMLLPPLKAQALSQGGIFNLPTLGVMYVYGFDLFFDFAGYSMFALAVSNLMGIKSPINFDKPFISRDMKEFWNRWHMSLSFWFRDFVFMRLVIVLMRNKVFKNRNTTSNVAYIINMMVMGFWHGITWYYIAYGIFHGIGLVINDAWLRKKKTINKDRKKAGLKPLPENKWTKALGIFITFNTVMLSFLIFSGFLNDLWFTKK
The stoichiometry N is a count of units in the complex or per binding partner. Regarding B2, the stoichiometry N in experiment [2], in experiment [3], in experiment [4] and in experiment [5] was 4 in each case.
